Assay: Bioactive Agent Release Assay, dextran-TRITC under polymer topcoat on discs (Example 4)
Format: physicochemical
Conditions: pEVA/pBMA topcoat coated at 48% relative humidity compared with 10% relative humidity; PBS, 37° C.; FIG. 2
Method: Two solutions were prepared in order to provide a coating composition in the form of a two part system. The first solution was an aqueous solution containing the bioactive agent, dextran-TRITC, at a concentration of 15 mg/ml. […] The poly(n-butyl methacrylate) and poly(ethylene-co-vinylacetate) were purified by extraction with organic solvents to remove impurities, e.g., monomer residues. The polymers of the second solution were dissolved in tetrahydrofuran at a concentration of 10 mg/ml.
Fifteen-millimeter diameter stainless steel discs with an overall thickness of two millimeters were fabricated with a nine-millimeter diameter flat pedestal. […] A surface treatment such as Parylene could be applied to the disc or the surface could be left untreated. The discs were weighed on a microbalance. The aqueous bioactive agent solution was applied to the pedestal surface of the discs with a pipette. The water evaporated from the discs and the discs were re-weighed on a microbalance to obtain the amount of the bioactive agent on the disc. The polymer coating solution containing poly(ethylene-co-vinylacetate) and poly(n-butyl methacrylate) was applied to the entire surface of the disc, covering the dextran. […]
Except as otherwise provided herein, each coated disc was placed in an amber vial with 4 mls of PBS. […] The concentration of bioactive agent in each PBS sample was determined using UV spectroscopy. […]

Substance: tetramethylrhodamine isothiocyanate-Dextran [dextran-TRITC]
- release rate of the bioactive agent from the composite coating: faster rate

From patent US20020188037A1, “Method and system for providing bioactive agent release coating” (priority 1999, published 2002)
